# Legend:
# [1] = tested on: vector DNA (ITR+cargo, ITR, HIV probes) in human graft; test: ddPCR of viral vector copies per human genome in long-term human xenografts; format: in vivo, NSG mice; details: AAVS1-edited HSPCs, AAV template
# Text: Since short-read sequencing of the edited locus and genome-wide IS identification may underestimate the overall frequency of trapping events, we performed ddPCR analyses to get an independent genome-wide quantification of AAV genome trapping events. […] On the contrary, we detected only background noise signal when probing for the AAV plasmid contaminants in the human long-term graft (FIG. 6i). […] Whether integration of AAV DNA occurs mostly as individual elements in a sizable fraction of cells treated for editing or as concatemers in only a small fraction of them cannot be determined by this analysis. Since ITR fragments are not detected by the ITR+cargo assay we performed ddPCR also with the ITR probe on PB samples of mice from FIG. 5g and found equal or higher signal in most mice (FIG. 51).
# gDNA was isolated with QIAamp DNA Micro Kit from DNAse-treated in vitro culture cells pellet and in vivo samples, or with QuickExtract (Epicentre) from single colonies according to the manufacturer's instructions. For ddPCR analyses, 5-50 ng of gDNA for in vitro/vivo samples and 2 μl of gDNA for single colonies were analyzed using the QX200 Droplet Digital PCR System according to the manufacturer's instructions. […]
# [2] = tested on: AAVS1 locus; format: in vivo, human xenograft; details: in presence and absence of Ad5-E4orf6/7; 65 samples of published experiments
# Description: PCR amplicons for individual samples were generated by nested PCR and starting from >50-100 ng of purified gDNA. The first PCR step was performed with GoTaq G2 DNA Polymerase (Promega) according to manufacturer instruction using the following amplification protocol: 95° C.×5′min, (95° C.×0.5 min, 60° C.×0.5 min, 72° C.×[…])×20 cycles, 72° C.×5 min. The second PCR step was performed with GoTaq G2 DNA Polymerase (Promega) according to manufacturer instruction using 5 μl of the first-step PCR product and the following amplification protocol: 95° C.×5 min, (95° C.×0.5 min, 60° C.×0.5 min, 72° C.×0.3 min)×20 cycles, 72° C.×5 min. […] Amplicons concentration and quality was assessed by QuantiFluor ONE dsDNA system and 4200 Tapestation System (Agilent). […]
# Sequencing data were analyzed with CRISPResso2, which enables detection and quantification of insertions, mutations, and deletions in reads from gene editing experiments. In details, for each sample, input NGS reads were trimmed using the Trimmomatic software (http://www.usadellab.org/cms/?page=trimmomatic) based on the phred33 score to get rid of low-quality positions (score <30) and to remove Illumina adapters, keeping only trimmed sequences longer than 100 bp (CRISPResso2 options:—trim_sequences—trimmomatic_command trimmomatic—trimmomatic_options_string ‘[…]: TruSeq3-PE-2.fa: 2:30:10 MINLEN: 100’). […]
Molecule,ITR+cargo copies in long-term xenograft in presence of editing enhancers [1],frequency and number of unique NHEJ-edited alleles in the human graft [2]
"GSE56: p53 dominant negative peptide (SEQ ID NO: 3), delivered as in vitro transcribed mRNA (nucleic acid, in vitro transcribed mRNA; protein SEQ ID NO: 3) DNA: ATGGATGGATGGTGTCCTGGGAGAGACCGTCGGACAGAGGAAGAAAATTTCCGCAAAAAAGAAGAGCATTGCCCGGAGCTGCCCCCAGGGAGTGCAAAGAGAGCACTGCCCACCAGCACAAGCTCCTCTCCCCAGCAAAAGAAAAAACCACTCGATGGAGAATATTTCACCCTTAAGATCCGTGGGCGTGAGCGCTTCGAGATGTTCCGAGAGCTGAATGAGGCCTTGGAATTAAAGGATGCCCGTGCTGCCGAGGAGTCAGGAGACAGCAGGGCTCACTCCAGCTACCCGAAGATAGTTAGTTAG",more copies,higher
"Ad5-E4orf6/7: adenovirus serotype 5 protein E4orf6/7 (SEQ ID No. 27), delivered as in vitro transcribed mRNA (nucleic acid, in vitro transcribed mRNA) DNA: ATGACCACCAGCGGCGTGCCCTTCGGCATGACACTCAGACCTACCAGAAGCCGGCTGAGCAGAAGAACCCCTTACAGCAGAGACAGGCTGCCTCCATTCGAGACAGAGACACGGGCCACCATCCTGGAAGATCACCCTCTGCTGCCCGAGTGTAACACCCTGACCATGCACAACGCCTGGACAAGCCCATCTCCTCCAGTGAAACAGCCCCAAGTGGGACAGCAGCCTGTTGCTCAGCAGCTGGACAGCGACATGAACCTGTCTGAACTGCCCGGCGAGTTCATCAACATCACCGACGAGAGACTGGCCCGGCAAGAGACAGTGTGGAACATCACCCCTAAGAACATGAGCGTGACCCACGACATGATGCTGTTCAAGGCCAGCAGAGGCGAGCGGACAGTGTACAGCGTTTGTTGGGAAGGCGGCGGACGGCTGAATACCAGAGTGCTGTAA",more copies,–

# Source: US20250288617A1, “Gene Therapy” (priority 2022, published 2025)
